Source: US20140044713A1 (KONINKLIJKE NEDERLANDSE AKADEMIE VAN WETENSCHAPPEN, published 2014)

B1: FBXW5 (other, not shown: small tags and cut ends)
chain: MDEGGTPLLPDSLVYQIFLSLGPADVLAAGLVCRQWQAVSRDEFLWREQFYRYYQVARDVPRHPAAMSWYEEFQRLYDTVPCVEVQTLREHTDQVLHLSFSHSGYQFASCSKDCTVKIWSNDLTISLLHSADMRPYNWSYTQFSQFNKDDSLLLASGVFLGPHNSSSGEIAVISLDSFALLSRVRNKPYDVFGCWLTETSLISGNLHRIGDITSCSVLWLNNAFQDVESENVNVVKRLFKIQNLNASTVRTVMVADCSRFDSPDLLLEAGDPATSPCRIFDLGSDNEEVVAGPAPAHAKEGLRHFLDRVLEGRAQPQLSERMLETKVAELLAQGHTKPPERSATGAKSKYLIFTTGCLTYSPHQIGIKQILPHQMTTAGPVLGEGRGSDAFFDALDHVIDIHGHIIGMGLSPDNRYLYVNSRAWPNGAVVADPMQPPPIAEEIDLLVFDLKTMREVRRALRAHRAYTPNDECFFIFLDVSRDFVASGAEDRHGYIWDRHYNICLARLRHEDVVNSVVFSPQEQELLLTASDDATIKAWRSPRTMRVLQAPRPRPRTFFSWLASQRR
notes: TAP-MS bait
B2: FBXW4 (other, not shown: small tags and cut ends)
chain: MAAAAGEEEEEEEAARESAARPAAGPALWRLPEELLLLICSYLDMRALGRLAQVCRWLRRFTSCDLLWRRIARASLNSGFTRLGTDLMTSVPVKERVKVSQNWRLGRCREGILLKWRCSQMPWMQLEDDSLYISQANFILAYQFRPDGASLNRRPLGVFAGHDEDVCHFVLANSHIVSAGGDGKIGIHKIHSTFTVKYSAHEQEVNCVDCKGGIIVSGSRDRTAKVWPLASGRLGQCLHTIQTEDRVWSIAISPLLSSFVTGTACCGHFSPLRIWDLNSGQLMTHLGSDFPPGAGVLDVMYESPFTLLSCGYDTYVRYWDLRTSVRKCVMEWEEPHDSTLYCLQTDGNHLLATGSSYYGVVRLWDRRQRACLHAFPLTSTPLSSPVYCLRLTTKHLYAALSYNLHVLDFQNP
notes: TAP-MS bait
B3: KCTD21 (other, not shown: small tags and cut ends)
chain: MSDPITLNVGGKLYTTSLATLTSFPDSMLGAMFSGKMPTKRDSQGNCFIDRDGKVFRYILNFLRTSHLDLPEDFQEMGLLRREADFYQVQPLIEALQEKEVELSKAEKNAMLNITLNQRVQTVHFTVREAPQIYSLSSSSMEVFNANIFSTSCLFLKLLGSKLFYCSNGNLSSITSHLQDPNHLTLDWVANVEGLPEEEYTKQNLKRLWVVPANKQINSFQVFVEEVLKIALSDGFCIDSSHPHALDFMNNKIIRLIRYR
notes: TAP-MS bait
B4: EMI1 (other, not shown: small tags and cut ends)
chain: MSRRPCSCALRPPRCSCSASPSAVTAAGRPRPSDSCKEESSTLSVKMKCDFNCNHVHSGLKLVKPDDIGRLVSYTPAYLEGSCKDCIKDYERLSCIGSPIVSPRIVQLETESKRLHNKENQHVQQTLNSTNEIEALETSRLYEDSGYSSFSLQSGLSEHEEGSLLEENFGDSLQSCLLQIQSPDQYPNKNLLPVLHFEKVVCSTLKKNAKRNPKVDREMLKEIIARGNFRLQNIIGRKMGLECVDILSELFRRGLRHVLATILAQLSDMDLINVSKVSTTWKKILEDDKGAFQLYSKAIQRVTENNNKFSPHASTREYVMFRTPLASVQKSAAQTSLKKDAQTKLSNQGDQKGSTYSRHNEFSEVAKTLKKNESLKACIRCNSPAKYDCYLQRATCKREGCGFDYCTKCLCNYHTTKDCSDGKLLKASCKIGPLPGTKKSKKNLRRL
notes: TAP-MS bait
B5: FBXO3 (other, not shown: small tags and cut ends)
chain: MAAMETETAPLTLESLPTDPLLLILSFLDYRDLINCCYVSRRLSQLSSHDPLWRRHCKKYWLISEEEKTQKNQCWKSLFIDTYSDVGRYIDHYAAIKKAWDDLKKYLEPRCPRMVLSLKEGAREEDLDAVEAQIGCKLPDDYRCSYRIHNGQKLVVPGLLGSMALSNHYRSEDLLDVDTAAGGFQQRQGLKYCLPLTFCIHTGLSQYIAVEAAEGRNKNEVFYQCPDQMARNPAAIDMFIIGATFTDWFTSYVKNVVSGGFPIIRDQIFRYVHDPECVATTGDITVSVSTSFLPELSSVHPPHYFFTYRIRIEMSKDALPEKACQLDSRYWRITNAKGDVEEVQGPGVVGEFPIISPGRVYEYTSCTTFSTTSGYMEGYYTFHFLYFKDKIFNVAIPRFHMACPTFRVSIARLEMGPDEYEEMEEEEEEEEEEDEDDDSADMDESDEDDEEERRRRVFDVPIRRRRCSRLF
notes: TAP-MS bait
B6: eEF2K (enzyme, not shown: small tags and cut ends)
chain: ADEDLIFRLEGVDGGQSPRAGHDGDSDGDSDDEEGYFICPITDDPSSNQNVNSKVNKYYSNLTKSERYSSSGSPANSFHFKEAWKHAIQKAKHMPDPWAEFHLEDIATERATRHRYNAVTGEWLDDEVLIKMASQPFGRGAMRECFRTKKLSNFLHAQQWKGASNYVAKRYIEPVDRDVYFEDVRLQMEAKLWGEEYNRHKPPKQVDIMQMCIIELKDRPGKPLFHLEHYIEGKYIKYNSNSGFVRDDNIRLTPQAFSHFTFERSGHQLIVVDIQGVGDLYTDPQIHTETGTDFGDGNLGVRGMALFFYSHACNRICESMGLAPFDLSPRERDAVNQNTKLLQSAKTILRGTEEKCGSPQVRTLSGSRPPLLRPLSENSGDENMSDVTFDSLPSSPSSATPHSQKLDHLHWPVFSDLDNMASRDHDHLDNHRESENSGDSGYPSEKRGELDDPEPREHGHSYSNRKYESDEDSLGSSGRVCVEKWNLLNSSRLHLPRASAVALEVQRLNALDLEKKIGKSILGKVHLAMVRYHEGGRFCEKGEEWDQESAVFHLEHAANLGELEAIVGLGLMYSQLPHHILADVSLKETEENKTKGFDYLLKAAEAGDRQSMILVARAFDSGQNLSPDRCQDWLEALHWYNTALEMTDCDEGGEYDGMQDEPRYMMLAREAEMLFTGGYGLEKDPQRSGDLYTQAAEAAMEAMKGRLANQYYQKAEEAWAQMEE
notes: TAP-MS bait
B7: UCHL1 (enzyme, not shown: small tags and cut ends)
chain: MQLKPMEINPEMLNKVLSRLGVAGQWRFVDVLGLEEESLGSVPAPACALLLLFPLTAQHENFRKKQIEELKGQEVSPKVYFMKQTIGNSCGTIGLIHAVANNQDKLGFEDGSVLKQFLSETEKMSPEDRAKCFEKNEAIQAAHDAVAQEGQCRVDDKVNFHFILFNNVDGHLYELDGRMPFPVNHGASSEDTLLKDAAKVCREFTEREQGEVRFSAVALC
notes: TAP-MS bait
B8: FBXL2 (other, not shown: small tags and cut ends)
chain: MVFSNNDEGLINKKLPKELLLRIFSFLDIVTLCRCAQISKAWNILALDGSNWQRIDLFNFQTDVEGRVVENISKRCGGFLRKLSLRGCIGVGDSSLKTFAQNCRNIEHLNLNGCTKITDSTCYSLSRFCSKLKHLDLTSCVSITNSSLKGISEGCRNLEYLNLSWCDQITKDGIEALVRGCRGLKALLLRGCTQLEDEALKHIQNYCHELVSLNLQSCSRITDEGVVQICRGCHRLQALCLSGCSNLTDASLTALGLNCPRLQILEAARCSHLTDAGFTLLARNCHELEKMDLEECILITDSTLIQLSIHCPKLQALSLSHCELITDDGILHLSNSTCGHERLRVLELDNCLLITDVALEHLENCRGLERLELYDCQQVTRAGIKRMRAQLPHVKVHAYFAPVTPPTAVAGSGQRLCRCCVIL
notes: TAP-MS bait
B9: FBXO31 (other, not shown: small tags and cut ends)
chain: MAVCARLCGVGPSRGCRRRQQRRGPAETAAADSEPDTDPEEERIEASAGVGGGLCAGPSPPPPRCSLLELPPELLVEIFASLPGTDLPSLAQVCTKFRRILHTDTIWRRRCREEYGVCENLRKLEITGVSCRDVYAKLLHRYRHILGLWQPDIGPYGGLLNVVVDGLFIIGWMYLPPHDPHVDDPMRFKPLFRIHLMERKAATVECMYGHKGPHHGHIQIVKKDEFSTKCNQTDHHRMSGGRQEEFRTWLREEWGRTLEDIFHEHMQELILMKFIYTSQYDNCLTYRRIYLPPSRPDDLIKPGLFKGTYGSHGLEIVMLSFHGRRARGTKITGDPNIPAGQQTVEIDLRHRIQLPDLENQRNFNELSRIVLEVRERVRQEQQEGGHEAGEGRGRQGPRESQPSPAQPRAEAPSKGPDGTPGEDGGEPGDAVAAAEQPAQCGQGQPFVLPVGVSSRNEDYPRTCRMCFYGTGLIAGHGFTSPERTPGVFILFDEDRFGFVWLELKSFSLYSRVQATFRNADAPSPQAFDEMLKNIQSLTS
notes: TAP-MS bait
B10: double (Flag-HA)-tagged version of human Dkk1 (Dkk1-FH) (ligand, UniProt O94907 32-266, looked up)
chain: TLNSVLNSNAIKNLPPPLGGAAGHPGSAVSAAPGILYPGGNKYQTIDNYQPYPCAEDEECGTDEYCASPTRGGDAGVQICLACRKRRKRCMRHAMCCPGNYCKNGICVSSDQNHFRGEIEETITESFGNDHSTLDGYSRRTTLSSKMYHTKGQEGSVCLRSSDCASGLCCARHFWSKICKPVLKEGQVCTKHRRKGSHGLEIFQRCYCGEGLSCRIQKDHHQASNSSRLHTCQRH
notes: not shown: Flag-HA double tag

Biological target: T1, LRP6 (endogenous) (human, UniProt O75581 20-1613)
T1 construct: whole, on cells
T1 sequence (O75581 20-1613): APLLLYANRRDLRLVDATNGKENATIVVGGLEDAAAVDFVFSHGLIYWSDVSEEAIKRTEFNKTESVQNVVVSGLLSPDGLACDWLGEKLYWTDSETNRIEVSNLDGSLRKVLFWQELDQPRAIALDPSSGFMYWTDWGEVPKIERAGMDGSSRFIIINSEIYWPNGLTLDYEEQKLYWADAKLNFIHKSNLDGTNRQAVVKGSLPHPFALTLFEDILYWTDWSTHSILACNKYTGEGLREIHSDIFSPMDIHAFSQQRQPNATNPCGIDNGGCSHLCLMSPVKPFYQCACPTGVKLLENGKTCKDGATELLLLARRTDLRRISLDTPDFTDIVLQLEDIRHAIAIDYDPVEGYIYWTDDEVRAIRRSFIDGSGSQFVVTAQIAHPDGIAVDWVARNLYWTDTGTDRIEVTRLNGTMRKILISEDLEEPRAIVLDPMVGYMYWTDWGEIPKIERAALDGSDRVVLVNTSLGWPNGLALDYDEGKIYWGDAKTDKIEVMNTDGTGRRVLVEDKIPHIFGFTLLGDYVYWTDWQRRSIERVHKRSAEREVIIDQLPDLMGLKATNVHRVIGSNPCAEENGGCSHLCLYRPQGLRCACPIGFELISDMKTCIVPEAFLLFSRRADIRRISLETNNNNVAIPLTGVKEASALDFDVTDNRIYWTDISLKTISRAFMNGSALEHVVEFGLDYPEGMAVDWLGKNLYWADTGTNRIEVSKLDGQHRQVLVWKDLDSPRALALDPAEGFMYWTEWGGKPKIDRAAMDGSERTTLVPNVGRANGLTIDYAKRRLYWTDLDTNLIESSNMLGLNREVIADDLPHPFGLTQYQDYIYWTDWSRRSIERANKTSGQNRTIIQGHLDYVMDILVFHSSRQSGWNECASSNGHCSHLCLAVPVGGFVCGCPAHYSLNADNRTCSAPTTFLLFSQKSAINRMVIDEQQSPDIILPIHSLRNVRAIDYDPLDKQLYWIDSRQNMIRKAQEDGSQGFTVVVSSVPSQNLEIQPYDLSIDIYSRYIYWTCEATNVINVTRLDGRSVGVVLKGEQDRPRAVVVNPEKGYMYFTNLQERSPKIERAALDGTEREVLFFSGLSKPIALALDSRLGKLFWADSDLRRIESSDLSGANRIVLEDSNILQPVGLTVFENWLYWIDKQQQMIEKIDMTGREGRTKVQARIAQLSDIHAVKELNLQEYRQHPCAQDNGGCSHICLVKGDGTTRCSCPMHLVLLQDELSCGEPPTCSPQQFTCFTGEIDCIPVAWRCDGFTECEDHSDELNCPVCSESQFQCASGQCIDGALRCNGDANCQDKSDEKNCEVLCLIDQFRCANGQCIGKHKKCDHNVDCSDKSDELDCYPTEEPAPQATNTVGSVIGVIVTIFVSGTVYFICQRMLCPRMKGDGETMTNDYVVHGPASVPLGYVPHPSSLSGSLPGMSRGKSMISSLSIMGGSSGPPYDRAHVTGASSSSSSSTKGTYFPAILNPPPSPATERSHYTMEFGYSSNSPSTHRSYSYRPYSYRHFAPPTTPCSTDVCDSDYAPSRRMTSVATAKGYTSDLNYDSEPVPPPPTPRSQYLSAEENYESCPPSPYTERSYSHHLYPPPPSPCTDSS
Assay: TAP + mass spectrometry, HEK293 cells

Binder	binding result
B1	no binding
B2	no binding
B3	no binding
B4	no binding
B5	no binding
B6	no binding
B7	no binding
B8	no binding
B9	no binding

Biological target: T2, LRP5 (endogenous) (human, UniProt O75197 32-1615)
T2 construct: whole, on cells
T2 sequence (O75197 32-1615): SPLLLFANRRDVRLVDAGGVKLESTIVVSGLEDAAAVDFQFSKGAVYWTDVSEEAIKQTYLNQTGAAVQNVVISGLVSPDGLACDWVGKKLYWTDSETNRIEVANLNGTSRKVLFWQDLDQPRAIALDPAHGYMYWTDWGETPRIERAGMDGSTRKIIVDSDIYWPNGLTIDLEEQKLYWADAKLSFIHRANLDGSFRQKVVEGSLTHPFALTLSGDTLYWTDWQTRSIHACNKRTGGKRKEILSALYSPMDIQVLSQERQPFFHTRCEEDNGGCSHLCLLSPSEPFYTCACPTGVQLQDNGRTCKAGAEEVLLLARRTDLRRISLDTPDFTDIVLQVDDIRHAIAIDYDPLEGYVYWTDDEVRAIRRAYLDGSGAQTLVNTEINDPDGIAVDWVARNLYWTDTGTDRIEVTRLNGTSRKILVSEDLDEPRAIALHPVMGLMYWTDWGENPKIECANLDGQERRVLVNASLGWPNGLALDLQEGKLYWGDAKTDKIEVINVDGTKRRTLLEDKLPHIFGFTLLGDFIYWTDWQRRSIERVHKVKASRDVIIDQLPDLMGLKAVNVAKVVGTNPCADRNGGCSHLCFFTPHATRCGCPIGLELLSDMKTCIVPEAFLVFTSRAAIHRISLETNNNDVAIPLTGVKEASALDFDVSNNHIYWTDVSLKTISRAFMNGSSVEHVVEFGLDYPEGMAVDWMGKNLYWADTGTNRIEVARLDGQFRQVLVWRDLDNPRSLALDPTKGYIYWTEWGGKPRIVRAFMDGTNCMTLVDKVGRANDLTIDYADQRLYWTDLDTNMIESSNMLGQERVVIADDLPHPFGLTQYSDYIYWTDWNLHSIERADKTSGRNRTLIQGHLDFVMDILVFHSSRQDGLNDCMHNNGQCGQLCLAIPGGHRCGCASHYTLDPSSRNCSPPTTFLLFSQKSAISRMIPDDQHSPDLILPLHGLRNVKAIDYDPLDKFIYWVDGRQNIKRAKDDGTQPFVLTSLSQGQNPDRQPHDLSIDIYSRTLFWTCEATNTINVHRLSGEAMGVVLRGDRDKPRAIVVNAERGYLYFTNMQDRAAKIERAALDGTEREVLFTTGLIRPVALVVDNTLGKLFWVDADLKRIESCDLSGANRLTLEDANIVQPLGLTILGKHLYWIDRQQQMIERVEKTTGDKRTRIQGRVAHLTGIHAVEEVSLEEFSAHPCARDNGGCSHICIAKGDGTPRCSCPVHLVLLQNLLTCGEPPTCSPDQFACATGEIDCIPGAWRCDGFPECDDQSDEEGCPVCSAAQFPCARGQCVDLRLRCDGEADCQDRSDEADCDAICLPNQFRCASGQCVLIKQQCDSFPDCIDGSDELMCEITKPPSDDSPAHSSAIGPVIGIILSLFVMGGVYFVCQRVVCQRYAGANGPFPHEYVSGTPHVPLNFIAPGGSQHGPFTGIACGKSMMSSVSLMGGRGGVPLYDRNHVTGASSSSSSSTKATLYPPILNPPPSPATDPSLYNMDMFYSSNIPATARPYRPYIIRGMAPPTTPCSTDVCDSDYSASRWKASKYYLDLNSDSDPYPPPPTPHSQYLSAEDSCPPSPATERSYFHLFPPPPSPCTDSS
Assay: TAP + mass spectrometry, HEK293 cells

Binder	binding result
B1	no binding
B2	no binding
B3	no binding
B4	no binding
B5	no binding
B6	no binding
B7	no binding
B8	no binding
B9	no binding

Biological target: T3, Lgr4 (endogenous, or expression construct whose tag is not stated) (human, UniProt Q9BXB1 25-951)
T3 construct: whole, on cells; Endogenous protein of HEK293T / LS174T cells in TAP-MS; also called endogenous Lgr4
Assay: TAP + mass spectrometry, HEK293 cells

Binder	binding result
B1	no binding
B2	no binding
B3	no binding
B4	no binding
B5	no binding
B6	no binding
B7	no binding
B8	no binding
B9	no binding

Biological target: T3, Lgr4 (endogenous, or expression …)
Assay: TAP (anti-FLAG, anti-HA) + mass spectrometry, 293T cells incubated with the soluble tagged bait, Exp 8
Protocol: Left panel (Exps 1-7): HEK293T cells were transiently transfected, and LS174T cells were stably, transfected with the indicated tagged proteins. Right panel (Exps 8-9): HEK293T cells were incubated with the indicated tagged soluble proteins at 1 μg/ml. Sequential immunoprecipitation was performed by anti-FLAG and anti-HA antibodies and the associated complexes were analysed by mass spectrometry. Number of assigned spectra, number of unique peptides and the MASCOT Protein Score are given for selected identified proteins.

Binder	binding result
B10	no binding (tested: 1 µg/ml)
